# What was measured:
# [1] = biological target: L2-OVX313 (human papillomavirus type 16) (UniProt P03107); test: SEC; Superdex 200 HR10/30, 25 mM Tris-HCl (pH 7.5), 150 mM NaCl, 0.7 ml/min; heparin-purified antigen; calibrated with molecular mass standards
# [2] = biological target: L2-OVX313 (human papillomavirus type 16) (UniProt P03107); test: non-reducing SDS-PAGE; heparin-purified antigen electrophoresed without β-mercaptoethanol (disulfide-linked oligomer kept); reduced sample beside it runs as the monomer
# [3] = biological target: PfTrx-L2(8x)-OVX313 (Pyrococcus furiosus); test: SEC; Superdex 200 HR10/30, 25 mM Tris-HCl (pH 7.5), 150 mM NaCl, 0.7 ml/min; heparin-purified antigen; calibrated with molecular mass standards
# [4] = biological target: PfTrx-L2(8x)-OVX313 (Pyrococcus furiosus); test: non-reducing SDS-PAGE; heparin-purified antigen electrophoresed without β-mercaptoethanol (disulfide-linked oligomer kept); reduced sample beside it runs as the monomer
# [5] = biological target: PfTrx-L2-OVX313 (Pyrococcus furiosus | human papillomavirus type 16) (UniProt P03107); test: SEC; Superdex 200 HR10/30, 25 mM Tris-HCl (pH 7.5), 150 mM NaCl, 0.7 ml/min; heparin-purified antigen; calibrated with molecular mass standards
# [6] = biological target: PfTrx-L2-OVX313 (Pyrococcus furiosus | human papillomavirus type 16) (UniProt P03107); test: non-reducing SDS-PAGE; heparin-purified antigen electrophoresed without β-mercaptoethanol (disulfide-linked oligomer kept); reduced sample beside it runs as the monomer
substance,measurement,setting,value
L2-OVX313 (from UniProt P03107 20-38; P03107 20-38; P03107 20-38),stoichiometry N,[1],7
same,stoichiometry N,[2],7
PfTrx-L2(8x)-OVX313,stoichiometry N,[3],7
same,stoichiometry N,[4],7
PfTrx-L2-OVX313 (from UniProt P03107 20-38; P03107 20-38; P03107 20-38),stoichiometry N,[5],7
same,stoichiometry N,[6],7

# From publication PMC5740060
